The NTF2 design screens of Basanta et al. (2020)

Assay: protease stability score; higher = more stable; yeast display proteolysis, trypsin and chymotrypsin;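 further: relative to predicted unfolded state with 0 unfolded-like and 1 meaning tenfold more protease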

Sequence | protease stability score
SEEEKHSHKAVEIITELLKTGDWHEILKNADPTTKSDFNGVELHGWEALQSILKFMGIDHVELKSIDVFNGRLTVHRNMHINGREHHLIIIALKVNGKWVLESMEVH | 1.84
HEEHKHVKELAEMLIEWFLTGDEETTLDMADPDVRIDINGVDKIGRETVVEFKKRQHRDLGWDNIRFRPTHINAFDGRINIEGVIIVNGVTFKTEFRFEVINGRLKLDKWIVR | 0.661
DERTEHFREYREKVLESIETGDPRVIKEMLDPNAKVEIVIGEKNFDLHGREEVMRWYEEWVEKYKGMRIHINHVEVQGEKIIVDSELEVNGKSHKTDLIITAFNGVIKETRVEIN | 1.06
SEDDELIKKYIKRWLHDLVTGDEDSLEELIDPNARLDINGKELIGREWVERVTKELRIEHINPRSVRSINGKVEIETEVHVNVNGVKIILDRHLDIHKVNGKWIVKEVRVK | 1.14
SEEEDLWKEFLRRLVETSNTGNERILSELFDPRTRIIYNGVDYVGREWALFMFLRADHVHIRIKSVDVQGEKAHVDGRMIQFVGDKEERHEVQLIDVKIDGRWLIRMMTVR | 1.51
DEEDEILERNFRKMLEDWKTGDEEMYSKLIDPHAKVDYNGREFVGREYAVEVWHKMGVDHIILRRSDVQGDKIKLDFESRQGDKSSNLKMESEKVNGVWLLHSVRYE | 1.11
EEDQEIFEQAMRELINSNLTGNEHRMQELADPHVRLIVGDKTYIGRESIWRFLFEWRIDHIEIRSYDIQGDKVHVDIEVHMRYGDKSTVSRMELRAEKVNGRWHIHFIRIH | 1.75
DEERKEFEEVFRQWIHALRTGDEDSELRNLDPNARIVVGDKEVHGREESERYLRETLHRADHMDFELHRLDVQGDKVHIDGTMILVVNGQEIRYRIHFISVKIDGRWLLRSVIIH | 1.86
DEMTHEIKRFLKEILRSSRTGDEHTDKHLMDPNVKIHYGEFHFHGREQAANFLSELRIHHVHIRDVDVQGDKATIDTEMDVEYNGQRYIFDVTLIMQKIDGRWLIKKVRYE | 1.3
SEDEEVIKKHLKEFIDVLRTGNEEMSSYLADPNARVVDENEFSHGREDMTRIVSQARLHHIHVHDFELQGDKLLLDVHVDGVINGRRRRDKFHFVWLKYNGRWFLHSVHIR | 0.652
DENRKFARVMTELILHSWYTGDWELDVKLADPNVLNDFNGKEIHGMENVSRQFIEMRIDDVRIRDLRIEVYGEKLISKIDGERNGHFDGRTVDTRMHLELIMEKINGRWIIREIRIEVK | 2.59
NEDEDWLRKVLHLLLHAAETGDEEILLHLLDPNARFIQGDKFKVGMDILETWIRKIKNLRIHDFELKDMRVYNGRIEVDGHLDRIINGQRERTDIILFLLKVDGRWYFEEIRIS | 2.09
SEEEENSRRVLELFRRIFETGDEDTSRRLADPDARVEVGEFHSIGRESFARMLHHLWRELRWKDEKIEHIEVQGDKVHVNGINFVIYNGKEINLTVHLEMQKVDGRWHIHHFKIE | 1.67
DETREIAIKMIELWIHAVKTGDEDRMTELLDPNALLIIGDKKIHGRENLLRFWKRIDHHHLRHIEIKEITFFNGQVEDDGIVEEELRVNGREFEIDSRVLYILKKVDGRWIMRTIEVK | 1.88
DERERELKQALDLFKDIIKTGDEEALTRLIDPNAKMRVNGQDIHGWHHFILMMIRIYLHMGIKHIIDHRLHIQGDYLHLDTEVHVDGRSIRYHIVLFKFDGRWHLESSSSI | 1.6
SELEEESHKFFREFYRVIETGDEDRLEELADPHVRNDFNGVLIHGREEMRKMREKVHKQLGVTRVEVTVRDMKIQGDKAISHGVFHIGEKDFIVTLISEKINGRWILHSIEVR | 1.2
DEEEEMVREVLHRVIHNILTGDEDSVSRMADPHVRVKEIINGKEFTLHGREMMLHMIREWRNRADHVEIHIRRSRVINGRLDSHGLLIIEINGKEIRHDTNLHLYVVDGVIKILTWNIE | 1.45
DREEEELKRIMHLFINFVETGDWELILKLMDPNVKMQIDFNGKIFRNHGRDALEYTIRLMGIDHIEIHHQDVIDGKLHIDVTVHIDGQDLRVHIHVIVIDGRIREVRHRTH | 1.23
SELNEKLKHLIELHWRVLETGDEHMMTRLLDPHARLEYGDKELHGREEVTHWHYEILEKVKNLQIHLSDYRIVNGQIHLHVVENVNGVTTRRFINIEKIDGRWHDREIRIE | 0.757
NEDEEHFKKWFEKYLRSLRTGDEENTRKLFDPHVRIEFENHELHGWENAVRFFRELHHRADVIHLELHDYTIVGDYVYIDVIVHLIYNGREFRHDVKIDASKIDGQWRIESLSIK | 1.64
DEEERAAEEFLRWISKNSRTGDEESFNHLADPNTRVIIGDKVLHGREEWKKFLEEIRIEEIELKDFRIFDGKIRLDVIHTGKVNGRRHEVQVQMIVIKVNGRWIMHSVKFD | 1.09
DEEEHRLRHFSELFTELFKTGDWKTFAKLMDPEVRTHSEWNGQEFSDHGMEAIVHFFKEFVDKFKNLTFHLTRIEVQGDKVHIDTILIFNGKTFTTRLEFIVVNGRIKEVRYHVK | 1.13
SEEEESSEDATKLILRLWKTGDEHEWEHLFDPNVKVHIGDKHYVGMEIAVNTLHMLLRELGIDHIRLRDVKIFNGKVIIVFKIEVNGREFETHIISEKVNGRWRIKSVRFE | 1.39
DETEEIAKKVVEYWIREFMTGNEESLLELIDPNAKSDILQGDKELHIVGRESARLFIKRFKGQRMEITHLEVHVQGDKVHVRLHVDIIYNGRKFHVISHVDWEKIDGRWIIHQEKFVFE | 1.71
DEVEHIVRWMVELLMRALQTGDEETLTRLMDPHARHEIDGKESHGREFLDTLKRRFKNIQWHSIEIEDYKHYDGRVEIHGILHVRVGDKRHEIHIEFVIQKIDGRWHVDRLHLK | 1.55
